From US11767343B2, “Peptide probe for recognition of G-quadruplex and use thereof in detection of G-quadruplex in cell” (Changzhi Medical College, priority 2020, dated 2023)
Where two headings read alike, the source gives them in different places. One block for each molecule: values may come before it.

Tests used:
DNA of G4 (GGGT)4 = test: Non-denaturing polyacrylamide gel electrophoresis of G4 DNA binding to proteins; settings: for binding to G4 DNAs (new slower band): protein:DNA 2:1 and 6:1, 100 nM G4 DNA, gel with 75 mM KCl
Description: After the culture was incubated until OD reach 0.5, the culture was induced with 0.8 mM IPTG and kept for 4 h at 37° C., followed by protein extraction and purification to obtain the proteins monomer, G4P, triplex, and tetrad. The protein extraction was performed by using Capturem™ His-Tagged Purification Miniprep Kit (TAKARA).
The obtained proteins were mixed with the DNA of G4 at a molar concentration ratio of 2:1 and 6:1, respectively, where the DNA of G4 comprises a sequence of (GGGT)4 (SEQ ID NO: 74), with a concentration of 100 nM. The G4 DNAs binding to the proteins were electrophoresed in a non-denaturing polyacrylamide gel containing 75 mM KCl. […] The G4 DNAs moved slower after binding to the proteins, thereby yielding a new band.

[1] = tested on: parallel and nonparallel G4s; test: ELISA comparison of G4 binding affinity between G4P and monomeric RHAU23; settings: FIG. 3
Description: (§1) The annealed oligonucleotides were immobilized on a streptavidin-coated plate (Sigma-Aldrich), followed by incubating with G4P or RHAU23 at the indicated concentrations. Detection of bound proteins used an anti-FLAG Mouse Monoclonal Antibody (Transgen Biotech, China), an HRP Conjugated Goat Anti-Mouse IgG (H+L) secondary antibody (Transgen Biotech, China), and a TMB ELISA Substrate (Transgen Biotech, China) according to the manufacturer's instructions. Absorbance was measured at 450 nm on a Multi-Plate Reader (Biotek, USA). Dissociation constants (Kd) were obtained from the binding curves. The standard error of mean values was calculated from three replicates.
A comparison of G4 binding affinity between G4P and a monomeric RHAU23 was further performed. A G4P comprising only one G4-binding domain was termed monomeric RHAU23.

non-G4 DNAs or RNAs = test: ELISA binding, summary over non-G4 controls; settings: ssDNA, RNA hairpin, DNA: RNA heteroduplex, i-motif
Description: as §1
(§2) Therefore, the following were searched for PQSs of the three well-characterized non-canonical G4s, i.e. G4s with one loop of 8-15 nucleotides (4GL15), G-vacancy-bearing G4s (GVBQ), G4 with a bulge (Bulge), respectively. The G4P had no binding to the non-G4 DNAs or RNAs, including single-stranded DNA (ssDNA), RNA hairpin, DNA: RNA heteroduplex, and i-motif.

MYOG = test: ELISA binding of G4P to immobilized biotinylated oligonucleotide; settings: G4, GVBQ, read-out: Kd (nM) ± SD
Description: as §1

NRAS RNA = test: as above; settings: G4, read-out: Kd (nM) ± SD
Description: as §1

SPB1 = test: as above; settings: G4, Antiparallel, read-out: Kd (nM) ± SD
Description: as §1

c-MYC = test: as above; settings: G4, Parallel, read-out: Kd (nM) ± SD
Description: as §1

Bcl2 = test: as above; settings: G4, Mixed parallel and antiparallel, read-out: Kd (nM) ± SD
Description: as §1

TBA = test: as above; settings: G4, Antiparallel, read-out: Kd (nM) ± SD
Description: as §1

C20orf24 = test: as above; settings: G4, Mixed parallel and antiparallel, read-out: Kd (nM) ± SD
Description: as §1

hTel = test: as above; settings: G4, Mixed parallel and antiparallel, read-out: Kd (nM) ± SD
Description: as §1

TERRA3G = test: as above; settings: intermolecular G4, Parallel, read-out: Kd (nM) ± SD
Description: as §1

HRAS1 = test: as above; settings: G4, Antiparallel, read-out: Kd (nM) ± SD
Description: as §1

C9orf72 = test: as above; settings: G4, Antiparallel, read-out: Kd (nM) ± SD
Description: as §1

hTel-3G = test: as above; settings: intermolecular G4, Mixed parallel and antiparallel, read-out: Kd (nM) ± SD
Description: as §1

T2B-1 = test: as above; settings: G4, Bulge, Parallel, read-out: Kd (nM) ± SD
Description: as §1

HT = test: as above; settings: G4, Mixed parallel and antiparallel, read-out: Kd (nM) ± SD
Description: as §1

ABTB2 = test: as above; settings: G4, GVBQ, read-out: Kd (nM) ± SD
Description: as §1

3G DNA + 1G RNA = test: as above; settings: 3/1 DNA/RNA Hybrid G4, Parallel, read-out: Kd (nM) ± SD
Description: as §1

TERRA = test: as above; settings: G4, Parallel, read-out: Kd (nM) ± SD
Description: as §1

CSTB = test: as above; settings: G4, Parallel, read-out: Kd (nM) ± SD
Description: as §1

2G DNA + 2G RNA = test: as above; settings: 2/2 DNA/RNA Hybrid G4, Parallel, read-out: Kd (nM) ± SD
Description: as §1

DRD3 = test: as above; settings: G4, Antiparallel, read-out: Kd (nM) ± SD
Description: as §1

G4s = test: ELISA binding, summary over the 21 G4s
Description: as §1, §2

B3: RHAU23: G4P comprising only one G4-binding domain RHAU23; amino acid sequence SEQ ID NO: 5 (protein)
chain: MGSSHHHHHHSSGLVPRGSHMHPGHLKGREIGMWYAKKQGQKNKGTGSGADYKDHDGDYKDHDIDYKDDDDK
modifications: Fully synthetic
discrimination between parallel and nonparallel G4s in binding [1]: only binds parallel, but not nonparallel G4s

B4: G4P: Polypeptide probe: two RHAU23 G4-binding domains, linker of three GTGSGA hexapeptides, C-terminal 3xFLAG tag, N-terminal HIS tag; SEQ ID NO: 4 (protein)
chain: MGSSHHHHHHSSGLVPRGSHMHPGHLKGREIGMWYAKKQGQKNKGTGSGAGTGSGAGTGSGAHPGHLKGREIGMWYAKKQGQKNKGTGSGADYKDHDGDYKDHDIDYKDDDDK
modifications: Fully synthetic
relative affinity with G4s among the proteins (DNA of G4 (GGGT)4; compared among monomer, G4P, triplex, tetrad): highest affinity
binding to G4 DNAs (new slower band) (DNA of G4 (GGGT)4): binding ability
binding to the non-G4 DNAs or RNAs (non-G4 DNAs or RNAs): no binding
Kd (MYOG): 0.82 ± 0.05 nM
Kd (NRAS RNA): 0.48 ± 0.03 nM
Kd (SPB1): 2.83 ± 0.15 nM
Kd (c-MYC): 0.99 ± 0.1 nM
Kd (Bcl2): 0.9 ± 0.08 nM
Kd (TBA): 1.71 ± 0.1 nM
Kd (C20orf24): 0.35 ± 0.03 nM
Kd (hTel): 0.37 ± 0.03 nM
Kd (TERRA3G): 0.83 ± 0.05 nM
Kd (HRAS1): 3.11 ± 0.25 nM
Kd (C9orf72): 1.89 ± 0.21 nM
Kd (hTel-3G): 0.71 ± 0.05 nM
Kd (T2B-1): 0.34 ± 0.02 nM
Kd (HT): 0.79 ± 0.05 nM
Kd (ABTB2): 0.59 ± 0.04 nM
Kd (3G DNA + 1G RNA): 0.59 ± 0.1 nM
Kd (TERRA): 1.44 ± 0.11 nM
Kd (CSTB): 0.37 ± 0.03 nM
Kd (2G DNA + 2G RNA): 0.42 ± 0.06 nM
Kd (DRD3): 0.31 ± 0.03 nM
Kd (G4s; 5 of the 21 G4s, read-out: Kd to 5 G4s): 1 to 3 nM
Kd to 16 G4s (G4s; 16 of the 21 G4s): sub-nM
Kd (G4s; range over the 21 G4s, read-out: Kd values for these G4s): 0.31 to 3.11 nM
discrimination between parallel and nonparallel G4s in binding [1]: almost no discrimination between the parallel and nonparallel G4

Further lines, results first:

binding to G4 DNAs (new slower band) (DNA of G4 (GGGT)4): binding ability
B1: triplex: Protein comprising three binding domains RHAU23; amino acid sequence SEQ ID NO: 6 (protein)
chain: MGSSHHHHHHSSGLVPRGSHMHPGHLKGREIGMWYAKKQGQKNKGTGSGAGTGSGAGTGSGAHPGHLKGREIGMWYAKKQGQKNKGTGSGAGTGSGAGTGSGAHPGHLKGREIGMWYAKKQGQKNKGTGSGADYKDHDGDYKDHDIDYKDDDDK
modifications: Fully synthetic

binding to G4 DNAs (new slower band) (DNA of G4 (GGGT)4): binding ability
B2: tetrad: Protein comprising four binding domains RHAU23; amino acid sequence SEQ ID NO: 7 (protein)
chain: MGSSHHHHHHSSGLVPRGSHMHPGHLKGREIGMWYAKKQGQKNKGTGSGAGTGSGAGTGSGAHPGHLKGREIGMWYAKKQGQKNKGTGSGAGTGSGAGTGSGAHPGHLKGREIGMWYAKKQGQKNKGTGSGAGTGSGAGTGSGAHPGHLKGREIGMWYAKKQGQKNKGTGSGADYKDHDGDYKDHDIDYKDDDDK
modifications: Fully synthetic
